Legend:
[1] = target: RSV-A2 F假病毒上的F蛋白 (参考序列Uniprot:P03420) (RSV A2, UniProt P03420 26-574); assay: cell-based or functional assay
RSV(strain A2)病毒的F蛋白 = RSV(strain A2)病毒的F蛋白 (RSV (strain A2), UniProt P03420 26-574); assay: cell-based or functional assay
Chain of RSV(strain A2)病毒的F蛋白 (P03420 26-574): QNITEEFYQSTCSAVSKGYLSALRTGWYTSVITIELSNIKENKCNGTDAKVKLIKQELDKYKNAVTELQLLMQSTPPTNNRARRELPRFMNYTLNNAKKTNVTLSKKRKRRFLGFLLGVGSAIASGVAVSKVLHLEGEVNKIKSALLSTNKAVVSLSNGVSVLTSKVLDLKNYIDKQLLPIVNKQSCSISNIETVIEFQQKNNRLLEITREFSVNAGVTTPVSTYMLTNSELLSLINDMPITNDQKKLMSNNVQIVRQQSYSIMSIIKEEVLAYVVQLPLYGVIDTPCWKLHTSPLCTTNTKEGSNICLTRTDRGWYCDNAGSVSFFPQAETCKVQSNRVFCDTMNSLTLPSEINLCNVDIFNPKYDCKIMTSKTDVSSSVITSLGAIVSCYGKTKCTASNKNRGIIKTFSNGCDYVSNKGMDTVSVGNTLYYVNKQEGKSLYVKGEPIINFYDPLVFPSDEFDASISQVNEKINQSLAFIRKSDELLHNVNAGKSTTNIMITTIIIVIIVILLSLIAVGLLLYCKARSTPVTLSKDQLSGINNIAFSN

Chain of RSV-A2 F假病毒上的F蛋白 (参考序列Uniprot:P03420) (P03420 26-574, one chain of several): as the sequence (P03420 26-574) above

Binder	中和IC50 (RSV-A2假病毒, luciferase, 293T细胞) [1] [µg/mL]	中和IC50 (RSV strain A2活病毒, focus count, 293T细胞) (RSV(strain A2)病毒的F蛋白) [µg/mL]
RSFP2D9抗体 (antibody, V domains shown) VH: EVQLVESGGGLVQPGGSLRLSCAASGFTFSTYEMNWVRQAPGKGLEWISYISVSGATIYYADSVKGRFTISRDNAKSSVYLQMTSLRPEDTAIYYCARDNSLTDYGSGLYWGQGTTVTVSS VL: not shown	0.532	0.054
RSFP2G7抗体 (antibody, V domains shown) VH: QVQLVQSGTEVRKPGSSVKVSCTASGGTFSIYDIFWVRQAPGQGLEWMGRIIPILDQIDYAQKFEGRVTITADKGRKTVYMELSSLRSDDTAVYYCARPPDTYDNIERWGPGTLVTVSS VL: not shown	1.7	0.734
RSFP2B6抗体 (antibody, V domains shown) VH: QVQLVQSGGALAQPGRSLRLSCTTSGFTFGDYAVNWVRQAPGKGLEWVGIVRTEPYGGTTEYSASVKGRFIISRDDSKGIAYLQMNSLKTEDTGVYYCSQPILNVDVWGQGTTVTVSS VL: NFMLTQPHSVSESPGKTVTISCTRSSGSFGSDYVQWYQQRPGSAPNTVIYENNQRPSGVPDRFSGSIDSSSNSASLTISGLKTEDEADYYCQSYDDNTPWVFGGGTELTVL	3.89	1

— patent publication CN118307667A (INST PATHOGEN BIOLOGY CAMS, dated 2024)
